Experimental data as given in paper PMC7078472.

Assays:
Experiment in all cases: MYTH (membrane yeast two-hybrid) quantitative β-Gal activity assay
[1] = target: TbATPc prey for MYTH (T. brucei ATP synthase subunit c without MTS, NubG-HA; identical to TcATPc); conditions: yeast strain NMY51, n = 3, 6 colonies for each independent experiment, read off a plot
[2] = target: TbMCU bait for MYTH (without MTS, SUC signal sequence, Cub-LexA-VP16); conditions: yeast strain NMY51; n = 3; 6 colonies for each independent experiment; parent: est. 140; read off a plot
[3] = target: T. cruzi MCU (TcMCU) bait for MYTH (Cub-LexA-VP16); conditions: yeast strain NMY51; n = 3; 6 colonies for each independent experiment; parent: est. 180; read off a plot
[4] = target: TbMCU bait for MYTH (without MTS, SUC signal sequence, Cub-LexA-VP16); conditions: yeast strain NMY51; n = 3; 6 colonies for each independent experiment; parent: est. 140; read off a plot; remark: listed apart in the source
[5] = target: TbMCUc bait for MYTH (Cub-LexA-VP16); conditions: yeast strain NMY51; n = 3; 6 colonies for each independent experiment; parent: est. 140; read off a plot
[6] = target: TbMCUd bait for MYTH (Cub-LexA-VP16); conditions: yeast strain NMY51; n = 3; 6 colonies for each independent experiment; parent: est. 180; read off a plot
[7] = target: TbATPc prey for MYTH (T. brucei ATP synthase subunit c without MTS, NubG-HA; identical to TcATPc); conditions: yeast strain NMY51; n = 3; 6 colonies for each independent experiment; parent: est. 150; read off a plot

TbMCUc bait for MYTH (Cub-LexA-VP16)
response ([1]; parent: est. 140): 29 units

TbMCUd bait for MYTH (Cub-LexA-VP16) R123A; V126P; L127P; Y132A
response ([1]; parent: est. 180): 34 units

T. cruzi MCU (TcMCU) bait for MYTH (Cub-LexA-VP16)
response ([1]; parent: est. 180): 32 units

TbMCU bait for MYTH (without MTS, SUC signal sequence, Cub-LexA-VP16)
response ([1]; parent: est. 140): 26 units

TbATPc prey for MYTH (T. brucei ATP synthase subunit c without MTS, NubG-HA; identical to TcATPc) G64L; G66L; G68L; G70L
response [2]: 45 units | response [3]: 58 units | response [4]: 44 units | response [5]: 43 units | response [6]: 58 units

TbMCU bait for MYTH (without MTS, SUC signal sequence, Cub-LexA-VP16) V216P; I217P
response [7]: 34 units

TbATPc prey for MYTH (T. brucei ATP synthase subunit c without MTS, NubG-HA; identical to TcATPc) F98L; E102A; F107L; F113L
response [2]: 88 units

TbMCUd bait for MYTH (Cub-LexA-VP16)
response ([1]; parent: est. 180): 27 units

TbATPc prey for MYTH (T. brucei ATP synthase subunit c without MTS, NubG-HA; identical to TcATPc) F98L; F107L; F113L
response [2]: 130 units

TbMCU bait for MYTH (without MTS, SUC signal sequence, Cub-LexA-VP16) Y235A; F236A; T241E; Y248A
response [7]: 120 units

TbMCU bait for MYTH (without MTS, SUC signal sequence, Cub-LexA-VP16) Q213A; V216P; I217P; F222A
response [7]: 27 units | response ([1]; parent: est. 140): 28 units

T. cruzi MCU (TcMCU) bait for MYTH (Cub-LexA-VP16) Q208A; I211P; I212P; F217A
response ([1]; parent: est. 180): 34 units

TbMCUc bait for MYTH (Cub-LexA-VP16) Q161A; V164P; L165P; F170A
response ([1]; parent: est. 140): 30 units

TbATPc prey for MYTH (T. brucei ATP synthase subunit c without MTS, NubG-HA; identical to TcATPc) G64A; G66A; G68A; G70A
response [2]: 69 units
